Columns and labels:
[1] = target: T1, ligand-binding domain of human FGFR1c (D142 to R365) (human, UniProt P11362 142-365); test: SPR
T1 chain: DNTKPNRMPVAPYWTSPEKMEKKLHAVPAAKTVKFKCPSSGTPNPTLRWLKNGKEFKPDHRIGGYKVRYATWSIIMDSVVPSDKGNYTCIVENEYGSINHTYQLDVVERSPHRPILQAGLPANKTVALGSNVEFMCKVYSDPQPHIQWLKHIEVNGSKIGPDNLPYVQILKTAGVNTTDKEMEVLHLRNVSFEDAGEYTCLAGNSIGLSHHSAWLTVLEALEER

[2] = target: T2, ligand-binding domain of human FGFR1c (D142 to R365) (human, UniProt P11362 142-365); test: SPR: FGFR1c ligand-binding domain over immobilized FGF21 (FIG. 10C)
T2 construct: range 142-365
T2 sequence (looked up): T1 chain
Text: (§1) FIGS. 10A-10D show overlays of SPR sensorgrams illustrating binding of FGFR1c to FGF2 (FIG. 10A), FGF19 (FIG. 10B), FGF21 (FIG. 10C), and FGF23 (FIG. 10D), and fitted saturation binding curves. Increasing concentrations of FGFR1c ligand-binding domain were passed over a biosensor chip containing immobilized FGF2, FGF19, FGF21, or FGF23. […] Increasing concentrations of αKlotho-FGFR1c complex were passed over a biosensor chip containing immobilized FGF23. […] FGF23^C-tail was immobilized on a biosensor chip and increasing concentrations of FGFR1c ligand-binding domain were passed over the chip. Dissociation constants (KDs) given in FIGS. 10A-10E were derived from the saturation binding curves.

[3] = target: T3, binary complex of FGFR1c ligand-binding domain with αKlotho ectodomain (murine; human, UniProt P11362 142-365); test: SPR competition: increasing chimera with a fixed concentration of αKlotho-FGFR1c complex over immobilized FGF23 (competitor)
T3 construct: range 142-365; also called αKlotho-FGFR1c complex; binary αKlotho-FGFR1c complex; not shown: C-terminal FLAG tag
T3 sequence 1: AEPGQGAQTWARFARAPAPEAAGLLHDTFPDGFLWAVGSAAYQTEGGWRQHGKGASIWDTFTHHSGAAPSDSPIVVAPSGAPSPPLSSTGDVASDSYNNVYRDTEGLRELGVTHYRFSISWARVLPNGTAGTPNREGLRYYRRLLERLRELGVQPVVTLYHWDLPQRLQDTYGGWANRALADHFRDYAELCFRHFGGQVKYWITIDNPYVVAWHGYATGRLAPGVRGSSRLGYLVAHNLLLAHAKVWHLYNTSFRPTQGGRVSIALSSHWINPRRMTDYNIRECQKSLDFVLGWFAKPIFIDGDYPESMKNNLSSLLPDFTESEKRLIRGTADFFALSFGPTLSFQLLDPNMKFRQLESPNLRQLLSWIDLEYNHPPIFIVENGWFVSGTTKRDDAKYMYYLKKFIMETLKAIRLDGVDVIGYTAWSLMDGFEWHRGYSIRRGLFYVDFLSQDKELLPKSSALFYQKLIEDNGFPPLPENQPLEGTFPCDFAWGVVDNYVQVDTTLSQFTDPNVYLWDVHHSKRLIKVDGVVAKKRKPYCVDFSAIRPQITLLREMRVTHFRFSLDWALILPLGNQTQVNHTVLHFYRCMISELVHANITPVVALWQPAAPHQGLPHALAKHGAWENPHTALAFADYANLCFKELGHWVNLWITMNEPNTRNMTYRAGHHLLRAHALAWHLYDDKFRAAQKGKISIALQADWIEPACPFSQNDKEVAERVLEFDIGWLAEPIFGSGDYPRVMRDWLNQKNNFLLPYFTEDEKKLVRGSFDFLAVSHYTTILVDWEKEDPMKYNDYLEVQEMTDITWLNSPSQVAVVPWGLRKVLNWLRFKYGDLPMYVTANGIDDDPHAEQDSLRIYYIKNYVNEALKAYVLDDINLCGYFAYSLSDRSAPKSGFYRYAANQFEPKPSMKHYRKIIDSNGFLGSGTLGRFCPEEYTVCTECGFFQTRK
T3 sequence 2: T1 chain
Text: FIGS. 7A and 7B show overlays of SPR sensorgrams illustrating inhibition by FGF2^ΔHBScore-FGF23^C-tail (FIG. 7A) or FGF23 (FIG. 7B) of αKlotho-FGFR1c binding to FGF23 immobilized on a biosensor chip. Increasing concentrations of FGF2^ΔHBScore-FGF23^C-tail or FGF23 were mixed with a fixed concentration of αKlotho-FGFR1c complex, and the mixtures were passed over a FGF23 chip. […] FGF2 and αKlotho-FGFR1c complex were mixed at a molar ratio of 15:1, and the mixture was passed over a biosensor chip containing immobilized FGF23. FIGS. 7D and 7E show overlays of SPR sensorgrams illustrating no inhibition by FGF2^ΔHBScore-FGF23^C-tail (FIG. 7D) or FGF23 (FIG. 7E) of βKlotho-FGFR1c binding to FGF21. FGF2^ΔHBScore-FGF23^C-tail or FGF23 were mixed with βKlotho-FGFR1c complex at a molar ratio of 10:1, and the mixtures were passed over a biosensor chip containing immobilized FGF21. […] Wild-type mice and αKlotho knockout mice were given 0.21 mg and 0.51 mg of protein, respectively, per kg of body weight. Data are presented as mean±SEM; **, P<0.01; ***, P<0.001 by ANOVA. […]
To determine whether the FGF2^ΔHBScore-FGF23^C-tail and FGF2^ΔHBScore-FGF21^C-tail chimeras gained the ability to signal in a Klotho co-receptor-dependent, endocrine fashion, it was first analyzed whether these chimeras can form ternary complexes with FGFR1c and Klotho co-receptor. […]

[4] = target: T2, ligand-binding domain of human FGFR1c …; test: SPR: FGF23^C-tail immobilized on chip, increasing concentrations of FGFR1c ligand-binding domain passed over (FIG. 10F)
Text: as §1

[5] = target: T4, binary complex of FGFR1c ligand-binding domain with αKlotho ectodomain (human, UniProt P11362 142-365); test: SPR
T4 chain 1: T3 sequence 1
T4 chain 2: T1 chain

[6] = target: T3, binary complex of FGFR1c ligand-binding …; test: SPR: immobilized FGF23; αKlotho-FGFR1c complex (FIG. 10E) against FGFR1c ligand-binding domain alone (FIG. 10D)
Text: as §1
In the target tissue, Klotho co-receptors constitutively associate with cognate receptors of endocrine FGFs to offset the inherently low receptor-binding affinity of endocrine FGFs (FIGS. 10B-10D; Kurosu et al., J. Biol. Chem. 282:26687-26695 (2007); Kurosu et al., J. Biol. Chem. 281:6120-6123 (2006); Ogawa et al., Proc. Nat'l. Acad. Sci. U.S.A. 104:7432-7437 (2007); Urakawa et al., Nature 444:770-774 (2006), which are hereby incorporated by reference in their entirety). […]

B1: N-terminally hexahistidine-tagged, mature form of human FGF21 (H29 to S209) (ligand)
chain: HPIPDSSPLLQFGGQVRQRYLYTDDAQQTEAHLEIREDGTVGGAADQSPESLLQLKALKPGVIQILGVKTSRFLCQRPDGALYGSLHFDPEACSFRELLLEDGYNVYQSEAHGLPLHLPGNKSPHRDPAPRGPARFLPLPGLPPALPEPPGILAPQPPDVGSSDPLSMVGPSQGRSPSYAS
notes: also called native FGF21; not shown: N-terminal hexahistidine tag
Kd [1]: 2520 nM
binding result [2]: binds

B2: FGF2^ΔHBScore-FGF23^C-tail chimera (designed binder)
chain: MAAGSITTLPALPEDGGSGAFPPGHFKDPKRLYCKNGGFFLRIHPDGRVDGVREKSDPHIKLQLQAEERGVVSIKGVSANRYLAMKEDGRLLASKSVTDECFFFERLESNNYNTYRSRKYTSWYVALDQTGQYVLGSKTGPGQKAILFLPMRNEIPLIHFNTPIPRQHTQSAEDDSERDPLNVLKPRARMTPAPASCSQELPSAEDNSPMASDPLGVVRGGRVNTHAGGTGPEGCRPFAKFI
notes: Core domain of FGF2 (M1 to M151, K128D/R129Q/K134V, C78S/C96S) joined to the C-terminal region of FGF23 (R161 to I251, R176Q/R179Q)
binding result [3]: binds

B3: N-terminally hexahistidine-tagged C-terminal tail peptide of FGF23 (S180 to I251) (peptide)
peptide: SAEDDSERDPLNVLKPRARMTPAPASCSQELPSAEDNSPMASDPLGVVRGGRVNTHAGGTGPEGCRPFAKFI
notes: also called FGF23^C-tail; not shown: N-terminal hexahistidine tag
binding result [4]: no binding

B4: N-terminally hexahistidine-tagged, mature form of human FGF23 (Y25 to I251) with arginines 176 and 179 replaced with glutamine (ligand)
chain: YPNASPLLGSSWGGLIHLYTATARNSYHLQIHKNGHVDGAPHQTIYSALMIRSEDAGFVVITGVMSRRYLCMDFRGNIFGSHYFDPENCRFQHQTLENGYDVYHSPQYHFLVSLGRAKRAFLPGMNPPPYSQFLSRRNEIPLIHFNTPIPRQHTQSAEDDSERDPLNVLKPRARMTPAPASCSQELPSAEDNSPMASDPLGVVRGGRVNTHAGGTGPEGCRPFAKFI
notes: also called native FGF23; wild-type FGF23; not shown: N-terminal hexahistidine tag
Kd [5]: 27.4 nM
Kd [1]: 648 nM
fold enhancement of the affinity of FGF23 for FGFR1c by αKlotho (against FGFR1c alone) [6]: > 20 fold

Reference: US20130331325A1 (NEW YORK UNIVERSITY, published 2013)
